Laboratory results published in article PMC11167270 (Heliyon, 2024).

Experiments:
[1] = biological target: Sac10b2 (Sulfolobus acidocaldarius); assay: AUC
AUC = biological target: the molecule itself; assay: AUC

Sac10b2 (natural protein)
stoichiometry N [1]: 2

B1: Sac10b1 (natural protein, Sulfolobus acidocaldarius)
chain: MSSGATPSNVVLVGKKPVMNYVLAALTLLNQGVSEITIKARGRAISKAVDTVEIVRNRFLPDKIEVKEIRIGSQVVTSQDGRQSRVSTIEIGIRKKA
stoichiometry N (AUC): 2

B2: Sac10b1 F59A (natural protein, Sulfolobus acidocaldarius)
chain: MSSGATPSNVVLVGKKPVMNYVLAALTLLNQGVSEITIKARGRAISKAVDTVEIVRNRALPDKIEVKEIRIGSQVVTSQDGRQSRVSTIEIGIRKKA
stoichiometry N (AUC): 2

B3: Sac10b1 R58A (natural protein, Sulfolobus acidocaldarius)
chain: MSSGATPSNVVLVGKKPVMNYVLAALTLLNQGVSEITIKARGRAISKAVDTVEIVRNAFLPDKIEVKEIRIGSQVVTSQDGRQSRVSTIEIGIRKKA
binding result (AUC): binds
